What was measured:
[1] = biological target: T1, Lambda integrase (Int) (bacteriophage lambda) (UniProt P03700); experiment: cell_activity; conditions: Xis, IHF
T1 sequence: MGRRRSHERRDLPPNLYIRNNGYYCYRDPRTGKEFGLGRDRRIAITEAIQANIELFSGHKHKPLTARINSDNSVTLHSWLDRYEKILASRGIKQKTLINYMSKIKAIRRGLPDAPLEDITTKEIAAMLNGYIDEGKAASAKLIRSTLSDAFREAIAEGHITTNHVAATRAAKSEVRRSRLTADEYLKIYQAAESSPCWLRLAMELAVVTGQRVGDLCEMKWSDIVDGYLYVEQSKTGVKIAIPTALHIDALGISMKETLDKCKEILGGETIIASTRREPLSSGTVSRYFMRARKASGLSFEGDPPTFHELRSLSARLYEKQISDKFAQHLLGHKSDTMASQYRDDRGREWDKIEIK

[2] = biological target: Cre recombinase (bacteriophage P1) (UniProt P06956); experiment: cell_activity; conditions: background 140 without Cre; 37 C; 19/24 correct product
UniProt P06956, sequence (P06956 whole entry): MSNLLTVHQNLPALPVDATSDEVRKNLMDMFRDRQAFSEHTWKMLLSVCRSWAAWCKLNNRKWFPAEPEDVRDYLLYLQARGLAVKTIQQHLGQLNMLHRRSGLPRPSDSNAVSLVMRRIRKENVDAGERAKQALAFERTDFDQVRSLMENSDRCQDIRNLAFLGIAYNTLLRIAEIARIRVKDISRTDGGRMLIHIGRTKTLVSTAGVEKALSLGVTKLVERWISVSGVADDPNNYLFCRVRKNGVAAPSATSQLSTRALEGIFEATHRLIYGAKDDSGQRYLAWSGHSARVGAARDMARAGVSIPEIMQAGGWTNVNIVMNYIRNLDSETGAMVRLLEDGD

Substance	activity ([1]; partner attR'1 (N5), Cre, background 1) [colonies]	activity ([1]; partner attR'2 (N6), Cre) [colonies]	activity ([1]; partner attR'wt, Cre (loxP for second recombination), background 1) [colonies]	activity [2] [colonies]
attL wt	4	0	147	–
loxP / loxP 511 plasmids	–	–	–	760

— US20040253631
